Here are results for four molecules from patent US20240166765A1 (ICONIC THERAPEUTICS, published 2024).

The target in assay [1] is T1, relipidated TF (UniProt P13726 33-295, limits assumed). Put plainly: cell-based or functional assay.
The target in assay [2] is rTF (rat TF) on HEK293 cells (rat, UniProt P42533 29-252). In words: live cell staining of transfected HEK293, flow cytometry. In general terms: In flow cytometry, cells or beads pass a laser one at a time.
Assay [3] addresses T1, relipidated TF. In words: cell-based or functional assay. The source holds these as a separate data set.
For assay [4], the target named is T2, human TF ECD-His6 (human, UniProt P13726 33-251).
T2 construct: made in Expi293 cells; the entry holds the ECD with the C-terminal TG-His6; also called TF-His; hTF
Put plainly: BLI (ForteBio Octet). (In general: BLI is a label-free optical method that tracks binding on a fibre tip over time.)

The target of assay [5] is T3, cynomolgus TF ECD-His6 (cynomolgus monkey (Macaca fascicularis)).
T3 construct: made in Expi293 cells; also called TF-His; cTF
T3 chain: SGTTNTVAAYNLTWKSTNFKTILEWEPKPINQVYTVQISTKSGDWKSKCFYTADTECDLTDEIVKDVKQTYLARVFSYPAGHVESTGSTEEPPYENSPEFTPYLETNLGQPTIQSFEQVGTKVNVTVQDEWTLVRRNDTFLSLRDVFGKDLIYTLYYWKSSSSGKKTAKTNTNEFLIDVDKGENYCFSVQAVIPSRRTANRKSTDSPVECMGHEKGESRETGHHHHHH
In words: BLI (ForteBio Octet).

The target of assay [6] is T2, human TF ECD-His6. Put plainly: SPR (Biacore), antibody on chip, TF-His titrated. Background: In SPR one partner is held on a chip, and binding of the other changes the refractive index at the surface.
For assay [7], the target named is T3, cynomolgus TF ECD-His6. In words: SPR (Biacore), antibody on chip, TF-His titrated.

Chain of rTF (rat TF) on HEK293 cells (P42533 29-252): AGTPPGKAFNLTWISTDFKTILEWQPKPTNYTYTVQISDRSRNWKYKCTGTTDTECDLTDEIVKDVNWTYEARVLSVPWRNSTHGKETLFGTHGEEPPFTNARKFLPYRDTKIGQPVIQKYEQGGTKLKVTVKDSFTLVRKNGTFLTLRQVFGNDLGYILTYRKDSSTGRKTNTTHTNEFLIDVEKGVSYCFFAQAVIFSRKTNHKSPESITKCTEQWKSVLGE

B1: TF-011 (antibody, V domains shown)
VH: EVQLLESGGGLVQPGGSLRLSCAASGFTFSNYAMSWVRQAPGKGLEWVSSISGSGDYTYYTDSVKGRFTISRDNSKNTLYLQMNSLRAEDTAVYYCARSPWGYYLDSWGQGTLVTVSS
VL: DIQMTQSPPSLSASAGDRVTITCRASQGISSRLAWYQQKPEKAPKSLIYAASSLQSGVPSRFSGSGSGTDFTLTISSLQPEDFATYYCQQYNSYPYTFGQGTKLEIK
notes: previously described anti-TF antibody
Turning to B1, in assay [1], the “decrease of peak IIa concentration, TGA with 10 min pre-incubation, 100 nM Ab” value (from here on “decrease … with 10 min pre-incubation, 100 nM Ab”) stood at 91% and the “decrease of peak IIa concentration, TGA without pre-incubation, 100 nM Ab” value (shortened to “decrease … TGA without pre-incubation, 100 nM Ab”) was determined as 91%. For the same molecule, in assay [2], the binding result is listed as “no binding (tested: 15 µg/ml (100 nM))”.

B2: 5G9 (antibody, V domains shown)
VH: QVQLVESGGGVVQPGRSLRLSCKASGFNIKDYYMHWVRQAPGKGLEWIGLIDPENGNTIYDPKFQGRFTISADNSKNTLFLQMDSLRPEDTAVYYCARDNSYYFDYWGQGTPVTVSS
VL: DIQMTQSPSSLSASVGDRVTITCKASQDIRKYLNWYQQKPGKAPKLLIYYATSLADGVPSRFSGSGSGTDYTFTISSLQPEDIATYYCLQHGESPYTFGQGTKLEIT
B2: in assay [1], the “decrease … with 10 min pre-incubation, 100 nM Ab” value was 92% and the “decrease … TGA without pre-incubation, 100 nM Ab” value was 92%.

B3: 1F (antibody, human IgG1, V domains shown)
VH: EVQLLESGGGLVQPGGSLRLSCAASGFTFSDYAMGWVRQAPGKGLEWVSTISGSGGLTYYADSVKGRFTISRDNSKNTLYLQMNSLRAEDTAVYYCAKAPYGYYMDVWGKGTTVTVSS
VL: not shown
notes: human IgG1
In general, Kd refers to the concentration at which binding is half-saturated. On to B3, for which, in assay [3], the “TGA without pre-incubation, 10 nM Ab: % ETP” value is 58%; the “TGA without pre-incubation, 10 nM Ab: % Peak IIa” value is 21%; the “TGA without pre-incubation, 10 nM Ab: ETP” value was 1400 nM·min; the “TGA without pre-incubation, 10 nM Ab: Lag Time” value worked out at 12.1 min. Further, in assay [3], the “TGA without pre-incubation, 10 nM Ab: Peak IIa” value came to 83 nM; the “TGA without pre-incubation, 10 nM Ab: ttPeak” value was determined as 19.8 min; the “TGA without pre-incubation, 50 nM Ab: % Peak IIa” value stood at 8%; the “TGA without pre-incubation, 50 nM Ab: Lag Time” value is 27.2 min. Further, in assay [3], the “TGA without pre-incubation, 50 nM Ab: Peak IIa” value stood at 32 nM; the “TGA without pre-incubation, 50 nM Ab: ttPeak” value was 36.8 min; the “TGA without pre-incubation, 100 nM Ab: % Peak IIa” value was 7%; the “TGA without pre-incubation, 100 nM Ab: Lag Time” value is 25.9 min. In addition, in assay [3], the “TGA without pre-incubation, 100 nM Ab: Peak IIa” value was found to be 29 nM and the “TGA without pre-incubation, 100 nM Ab: ttPeak” value is 37.9 min. In addition, in assay [1], the “decrease … with 10 min pre-incubation, 100 nM Ab” value amounted to 93% and the “decrease … TGA without pre-incubation, 100 nM Ab” value amounted to 92%. For the same molecule, the affinity in assay [4], expressed as Kd, was 1.28 nM. This molecule showed a dissociation constant (Kd) in assay [5] of 1.43 nM. In addition, the binding result in assay [2] is on record as “no binding (tested: 15 µg/ml (100 nM))”. In assay [6], this molecule displayed a dissociation constant Kd of 0.31 nM. Further, the Kd in assay [7] was 0.26 nM.

B4: 54E (antibody, human IgG1, V domains shown)
VH: QVQLVQSGAEVKKPGASVKVSCKASGYTFANYYMHWVRQAPGQGLEWMGIINPSGGITVYAQKFQGRVTMTRDTSTSTVYMELSSLRSEDTAVYYCARGGSKVAALAFDIWGQGTMVTVSS
VL: DIQMTQSPSSLSASVGDRVTITCQASQDISNSLNWYQQKPGKAPKLLIYDASNLETGVPSRFSGSRSGTDFTFTISSLQPEDIATYYCQQYNFHPLTFGGGTKVEIK
notes: human IgG1
On to B4, for which the Kd in assay [4] turned out to be 1.59 nM; in assay [5], 4.16 nM; in assay [6] it was 0.42 nM; in assay [7], 1.83 nM. In addition, the binding result in assay [2] is reported as “no binding (tested: 15 µg/ml (100 nM))”.
